Read-outs that look alike come from different tables or passages of the source.
Experiments:
Rabbit serum albumin [1] = target: T1, Rabbit serum albumin (rabbit, UniProt P49065 25-608); assay: SPR, SA on chip, 25 C
T1 construct: bought; immobilised on a CM5 chip by amine coupling; also called Rabbit SA
Description: (§1) Human SA is obtained from Sigma Aldrich (Cat. No. A8763). […] Mouse SA is obtained from Sigma Aldrich (Cat. No. A3139). Rat SA is obtained from Sigma Aldrich (Cat. No. A4538). Pig SA is obtained from Sigma Aldrich (Cat. No. A4414). […] Cow SA is obtained from Sigma Aldrich (Cat. No. A7030). […] Excess reactive groups on the surfaces (flow cell 1 and 2) are deactivated by injecting 70 μl of 1 M Ethanolamine hydrochloride-NaOH pH 8.5.
(§2) 180 μl of sample are individually injected sequentially across the immobilized SAs on the chip's surface and dissociated for 600 sec at 60 μl/min flow rate at 25° C.

[2] = target: human GFRAL and human RET on HEK293 cells (human, UniProt Q6UXV0 19-394; P07949 29-1114); assay: cell-based or functional assay
Human serum albumin [3] = target: T2, Human serum albumin (human, UniProt P02768 25-609); assay: SPR, SA on chip, 1:1 fit, 25 C
T2 construct: bought; immobilised on a CM5 chip by amine coupling; also called Human SA
Description: as §1, §2

[4] = target: T3, Cynomolgus monkey serum albumin (cynomolgus monkey, UniProt A2V9Z4 25-608); assay: SPR, SA on chip, 1:1 fit, 25 C
T3 construct: bought; immobilised on a CM5 chip by amine coupling; also called Cyno SA
Description: as §1, §2

Mouse serum albumin [5] = target: T4, Mouse serum albumin (mouse, UniProt P07724 25-608); assay: SPR, SA on chip, 1:1 fit, 25 C
T4 construct: bought; immobilised on a CM5 chip by amine coupling; also called Mouse SA
Description: as §1, §2

Rat serum albumin [6] = target: T5, Rat serum albumin (rat, UniProt P02770 25-608); assay: SPR, SA on chip, 1:1 fit, 25 C
T5 construct: bought; immobilised on a CM5 chip by amine coupling; also called Rat SA
Description: as §1, §2

Pig serum albumin [7] = target: T6, Pig serum albumin (pig, UniProt P08835 25-607); assay: SPR, SA on chip, 1:1 fit, 25 C
T6 construct: bought; immobilised on a CM5 chip by amine coupling; also called Pig SA
Description: as §1, §2

Dog serum albumin [8] = target: T7, Dog serum albumin (dog, UniProt P49822 25-608); assay: SPR, SA on chip, 1:1 fit, 25 C
T7 construct: bought; immobilised on a CM5 chip by amine coupling; also called Dog SA
Description: as §1, §2

Cow serum albumin [9] = target: T8, Cow serum albumin (cow, UniProt P02769 25-607); assay: SPR, SA on chip, 25 C; ka and kd printed as *not applicable
T8 construct: bought; immobilised on a CM5 chip by amine coupling; also called Cow SA
Description: as §1, §2

Rabbit serum albumin [10] = target: T1, Rabbit serum albumin; assay: SPR, SA on chip, 25 C; remark: listed apart in the source
Description: as §1, §2

[11] = target: IL-2 receptor-dimer pair of the PathHunter IL-2 BioAssay cells; assay: cell-based or functional assay
Human serum albumin [12] = target: T2, Human serum albumin; assay: SPR, SA on chip, 1:1 fit, 25 C; remark: listed apart in the source
Description: as §1, §2

[13] = target: T3, Cynomolgus monkey serum albumin; assay: SPR, SA on chip, 1:1 fit, 25 C; remark: listed apart in the source
Description: as §1, §2

Mouse serum albumin [14] = target: T4, Mouse serum albumin; assay: SPR, SA on chip, 1:1 fit, 25 C; remark: listed apart in the source
Description: as §1, §2

Rat serum albumin [15] = target: T5, Rat serum albumin; assay: SPR, SA on chip, 1:1 fit, 25 C; remark: listed apart in the source
Description: as §1, §2

Pig serum albumin [16] = target: T6, Pig serum albumin; assay: SPR, SA on chip, 1:1 fit, 25 C; remark: listed apart in the source
Description: as §1, §2

Dog serum albumin [17] = target: T7, Dog serum albumin; assay: SPR, SA on chip, 1:1 fit, 25 C; remark: listed apart in the source
Description: as §1, §2

Cow serum albumin [18] = target: T8, Cow serum albumin; assay: SPR, SA on chip, 1:1 fit, 25 C
Description: as §1, §2

B1: VHH-based fusion of Example 5, VHH fusion 5 (MC6.1C22-(G4Q)5-GDF15) (other)
chain: EVQLLESGGGLVQPGGSLRLSCAASGRYIDETAVAWFRQAPGKEREFVAGIGGGVDITYYADSVKGRFTISRDNSKNTLYLQMNSLRPEDTAVYYCAARPGRPLITSKVADLYPYWGQGTLVTVSSGGGGQGGGGQGGGGQGGGGQGGGGQGDHCPLGPGRCCRLHTVRASLEDLGWADWVLSPREVQVTMCIGACPSQFRAANMHAQIKTSLHRLKPDTVPAPCCVPASYNPMVLIQKTDTGVSLQTYDDLLAKDCHCI
notes: also called Compound 5; VHH-GDF15 fusion
Rabbit serum albumin [1]
  binding result: no binding (tested: up to 1000 nM)
[2]
  hGFRAL/RET EC50 (pM), p-ERK1/2 AlphaLISA: 101 pM
Human serum albumin [3]
  Kd: 0.2 nM
  koff: 0.00014 s⁻¹
  kon: 670000 M⁻¹ s⁻¹
[4]
  Kd: 0.45 nM
  koff: 0.00034 s⁻¹
  kon: 740000 M⁻¹ s⁻¹
Mouse serum albumin [5]
  Kd: 0.86 nM
  koff: 0.0012 s⁻¹
  kon: 1.4e+06 M⁻¹ s⁻¹
Rat serum albumin [6]
  Kd: 0.74 nM
  koff: 0.00077 s⁻¹
  kon: 1e+06 M⁻¹ s⁻¹
Pig serum albumin [7]
  Kd: 3.3 nM
  koff: 0.0028 s⁻¹
  kon: 850000 M⁻¹ s⁻¹
Dog serum albumin [8]
  Kd: 0.6 nM
  koff: 0.00068 s⁻¹
  kon: 1.1e+06 M⁻¹ s⁻¹
Cow serum albumin [9]
  Kd: 28 nM

B2: VHH-based fusion of Example 6, VHH fusion 6 (IL2-(G4Q)5-MC6.1C22.43) (other)
chain: APQSSSTQQTQLQLEHLLLDLQMILNGINNYKNPKLTRMLTFKFYMPKKATELKHLQCLEEELKPLEEVLNLAQSKNFHLRPRDLISRINVIVLELKGSETTFMCEYADETATIVEFLNRWITFAQSIISTLTGGGGQGGGGQGGGGQGGGGQGGGGQEVQLLESGGGLVQPGGSLRLSCAASGRYIDETAVAWFRQAPGKEREFVAGIGGGVDITYYADSVKGRFTISRDNSKNTLYLQMNSLRPEDTAVYYCAARPGRPLITSKVADLYPYWGQGTLVTVSSPP
notes: also called Compound 6; IL-2-VHH fusion
Rabbit serum albumin [10]
  binding result: no binding (tested: up to 1000 nM)
[11]
  EC50 (nM), PathHunter IL-2 BioAssay: 6.7 nM
Human serum albumin [12]
  Kd: 1.5 nM
  koff: 0.00026 s⁻¹
  kon: 180000 M⁻¹ s⁻¹
[13]
  Kd: 5 nM
  koff: 0.00088 s⁻¹
  kon: 180000 M⁻¹ s⁻¹
Mouse serum albumin [14]
  Kd: 50 nM
  koff: 0.0087 s⁻¹
  kon: 170000 M⁻¹ s⁻¹
Rat serum albumin [15]
  Kd: 34 nM
  koff: 0.0066 s⁻¹
  kon: 190000 M⁻¹ s⁻¹
Pig serum albumin [16]
  Kd: 100 nM
  koff: 0.012 s⁻¹
  kon: 120000 M⁻¹ s⁻¹
Dog serum albumin [17]
  Kd: 19 nM
  koff: 0.0034 s⁻¹
  kon: 170000 M⁻¹ s⁻¹
Cow serum albumin [18]
  Kd: 380 nM
  koff: 0.071 s⁻¹
  kon: 190000 M⁻¹ s⁻¹

From patent US20240316154A1 (Eli Lilly, published 2024)
